Results reported in patent US20140087995A1 (published 2014).
Numbered stars: 1 amine (or outer) side, 2 acyl side, 3 side chain; on linkers, the order of the positions; unused ones are H or OH. Bridge positions count the residues as written; N and C are the ends. Side chains are listed from the residue outwards. Ends that are not written are not given here. * marks the point of attachment. C20 diacid = O=C(O)CCCCCCCCCCCCCCCCCCC(=O)*; γGlu = O=C(O)[C@H](CCC(=O)[*:2])N[*:1]

Columns and labels:
[1] = molecular target: T1, rat amylin receptor (rat calcitonin receptor + rat RAMP 3) (rat, UniProt P32214 25-516; Q9JJ73 23-147); assay: SPA competition with 125I-rat amylin on membranes of BHK tk'ts 13 cells with rat calcitonin receptor + rat RAMP3 (Assay VI)
T1 construct: whole, on cells; Membranes of transiently transfected BHK tk'ts 13 cells; also called rAmylin-R; rat amylin 3(a) receptor
T1 sequence (looked up) 1: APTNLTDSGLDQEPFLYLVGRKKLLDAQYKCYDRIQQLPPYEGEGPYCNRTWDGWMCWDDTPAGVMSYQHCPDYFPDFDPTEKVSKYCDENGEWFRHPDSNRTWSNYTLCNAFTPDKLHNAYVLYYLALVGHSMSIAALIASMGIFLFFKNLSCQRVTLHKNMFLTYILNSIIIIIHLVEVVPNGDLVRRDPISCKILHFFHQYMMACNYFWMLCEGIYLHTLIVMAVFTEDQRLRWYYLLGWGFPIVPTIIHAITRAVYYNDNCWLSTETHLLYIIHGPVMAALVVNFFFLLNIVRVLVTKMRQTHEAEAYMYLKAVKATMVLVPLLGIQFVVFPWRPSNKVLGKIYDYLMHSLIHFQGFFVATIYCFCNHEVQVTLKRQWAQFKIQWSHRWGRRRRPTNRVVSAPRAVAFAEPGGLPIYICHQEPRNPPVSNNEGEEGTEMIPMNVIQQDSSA
T1 sequence (looked up) 2: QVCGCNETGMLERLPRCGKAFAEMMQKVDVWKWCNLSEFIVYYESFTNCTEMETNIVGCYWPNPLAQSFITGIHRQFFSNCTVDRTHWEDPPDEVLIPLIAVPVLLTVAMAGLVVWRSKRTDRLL

[2] = molecular target: T2, human calcitonin receptor (human, UniProt P30988 25-474); assay: ratio of IC50 on human calcitonin receptor to IC50 on human amylin receptor (reference m42), SPA competition
T2 construct: whole, on cells; Membranes of stably transfected cells; also called hCTR; hCT
T2 sequence (looked up): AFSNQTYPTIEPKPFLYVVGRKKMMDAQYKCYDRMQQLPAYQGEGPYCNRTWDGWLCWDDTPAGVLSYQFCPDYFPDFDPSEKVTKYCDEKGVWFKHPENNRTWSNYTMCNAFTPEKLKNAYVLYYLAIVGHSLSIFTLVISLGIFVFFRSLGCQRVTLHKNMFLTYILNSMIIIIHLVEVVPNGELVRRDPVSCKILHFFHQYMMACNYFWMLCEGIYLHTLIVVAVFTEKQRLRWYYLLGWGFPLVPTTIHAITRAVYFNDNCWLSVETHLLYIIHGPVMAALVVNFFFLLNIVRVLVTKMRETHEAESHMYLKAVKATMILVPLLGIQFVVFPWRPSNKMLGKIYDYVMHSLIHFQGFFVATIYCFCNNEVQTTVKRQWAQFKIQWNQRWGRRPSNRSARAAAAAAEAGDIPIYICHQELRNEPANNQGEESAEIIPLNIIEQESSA
Summary of the method: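 Scintillation proximity competition binding on cell membranes at 35 ng/μL with SPA beads, in 50 mM Hepes pH 7.4, 1 mM CaCl2, 5 mM MgCl₂, 0.1% OA, 0.02% Tween20. Incubated 120 min at 25° C with shaking. IC₅₀ from one-site competition fit.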

rat calcitonin receptor [3] = molecular target: T3, rat calcitonin receptor (rat, UniProt P32214 25-516); assay: ratio of IC50 on rat calcitonin receptor to IC50 on rat amylin receptor (reference m40)
T3 construct: whole, on cells; Membranes of transiently transfected BHK tk'ts 13 cells; also called rCTR; rat calcitonin (a) receptor
T3 sequence (looked up): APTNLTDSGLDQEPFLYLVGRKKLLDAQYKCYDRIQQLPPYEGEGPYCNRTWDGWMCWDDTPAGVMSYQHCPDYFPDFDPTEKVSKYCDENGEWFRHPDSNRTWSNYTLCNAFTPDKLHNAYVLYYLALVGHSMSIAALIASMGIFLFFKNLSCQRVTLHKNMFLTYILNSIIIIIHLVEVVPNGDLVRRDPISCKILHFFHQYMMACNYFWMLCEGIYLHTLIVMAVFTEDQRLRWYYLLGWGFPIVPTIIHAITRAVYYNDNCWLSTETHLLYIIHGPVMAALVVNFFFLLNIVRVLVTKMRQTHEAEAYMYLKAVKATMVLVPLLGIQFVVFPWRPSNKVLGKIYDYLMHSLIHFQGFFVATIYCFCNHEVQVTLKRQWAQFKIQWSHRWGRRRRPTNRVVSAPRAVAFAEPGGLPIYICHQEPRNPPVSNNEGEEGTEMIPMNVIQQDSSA

rat calcitonin receptor [4] = molecular target: T3, rat calcitonin receptor; assay: SPA competition with 125I-calcitonin on membranes of BHK tk'ts 13 cells with rat calcitonin receptor (Assay VIII)

B1: N^ε1-[(4S)-4-carboxy-4-[[(4S)-4-carboxy-4-(19-carboxynonadecanoylamino)butanoyl]amino]butanoyl]-[Glu14,Arg17,Pro21,Pro27,Pro34,Phe37]-h-amylin (peptide)
peptide: K([γGlu-γGlu-C20 diacid])CNTATCATQRLAEFLRHSSPNFGAIPSSTNVGPNTF-NH2
modifications: disulfide 2-7; N-terminus assumed
SMILES: CC[C@H](C)[C@H](NC(=O)[C@H](C)NC(=O)CNC(=O)[C@H](Cc1ccccc1)NC(=O)[C@H](CC(N)=O)NC(=O)[C@@H]1CCCN1C(=O)[C@H](CO)NC(=O)[C@H](CO)NC(=O)[C@H](Cc1c[nH]cn1)NC(=O)[C@H](CCCNC(=N)N)NC(=O)[C@H](CC(C)C)NC(=O)[C@H](Cc1ccccc1)NC(=O)[C@H](CCC(=O)O)NC(=O)[C@H](C)NC(=O)[C@H](CC(C)C)NC(=O)[C@H](CCCNC(=N)N)NC(=O)[C@H](CCC(N)=O)NC(=O)[C@@H](NC(=O)[C@H](C)NC(=O)[C@@H]1CSSC[C@H](NC(=O)[C@@H](N)CCCCNC(=O)CC[C@H](NC(=O)CC[C@H](NC(=O)CCCCCCCCCCCCCCCCCCC(=O)O)C(=O)O)C(=O)O)C(=O)N[C@@H](CC(N)=O)C(=O)N[C@@H]([C@@H](C)O)C(=O)N[C@@H](C)C(=O)N[C@@H]([C@@H](C)O)C(=O)N1)[C@@H](C)O)C(=O)N1CCC[C@H]1C(=O)N[C@@H](CO)C(=O)N[C@@H](CO)C(=O)N[C@H](C(=O)N[C@@H](CC(N)=O)C(=O)N[C@H](C(=O)NCC(=O)N1CCC[C@H]1C(=O)N[C@@H](CC(N)=O)C(=O)N[C@H](C(=O)N[C@@H](Cc1ccccc1)C(N)=O)[C@@H](C)O)C(C)C)[C@@H](C)O
notes: Synthetic acylated analogue of human amylin
Which results are given for B1?
IC50 [1]: 0.205 nM; Ratio hCT/hAmylin binding [2]: 18; Ratio rCT/rAmylin binding (rat calcitonin receptor [3]): 114; IC50 (rat calcitonin receptor [4]): 23.4 nM

B2: N^ε1-[(4S)-4-carboxy-4-[[(4S)-4-carboxy-4-(19-carboxynonadecanoylamino)butanoyl]amino]butanoyl]-[Glu14,Arg17,Pro21,Pro31,Pro34,Glu35]-h-amylin (peptide)
peptide: K([γGlu-γGlu-C20 diacid])CNTATCATQRLAEFLRHSSPNFGAILSSTPVGPETY-NH2
modifications: disulfide 2-7
notes: as for B1
Which IC50 [1] does the source give for B2 here?
Its IC50 is 0.449 nM.

And the “Ratio hCT/hAmylin binding” value [2]?
Its value is 22.6.

What about the “Ratio rCT/rAmylin binding” value (rat calcitonin receptor [3]) of the same binder?
Its value is 74.7.

What about the IC50 (rat calcitonin receptor [4]) of the same binder?
The IC50 was 33.5 nM.

B3: N^ε1-[(4S)-4-carboxy-4-[[(4S)-4-carboxy-4-(19-carboxynonadecanoylamino)butanoyl]amino]butanoyl]-[Glu14,Arg17,Pro23,Pro34,Glu35]-h-amylin (peptide)
peptide: K([γGlu-γGlu-C20 diacid])CNTATCATQRLAEFLRHSSNNPGAILSSTNVGPETY-NH2
modifications: disulfide 2-7; N-terminus assumed
SMILES: CC[C@H](C)[C@H](NC(=O)[C@H](C)NC(=O)CNC(=O)[C@@H]1CCCN1C(=O)[C@H](CC(N)=O)NC(=O)[C@H](CC(N)=O)NC(=O)[C@H](CO)NC(=O)[C@H](CO)NC(=O)[C@H](Cc1c[nH]cn1)NC(=O)[C@H](CCCNC(=N)N)NC(=O)[C@H](CC(C)C)NC(=O)[C@H](Cc1ccccc1)NC(=O)[C@H](CCC(=O)O)NC(=O)[C@H](C)NC(=O)[C@H](CC(C)C)NC(=O)[C@H](CCCNC(=N)N)NC(=O)[C@H](CCC(N)=O)NC(=O)[C@@H](NC(=O)[C@H](C)NC(=O)[C@@H]1CSSC[C@H](NC(=O)[C@@H](N)CCCCNC(=O)CC[C@H](NC(=O)CC[C@H](NC(=O)CCCCCCCCCCCCCCCCCCC(=O)O)C(=O)O)C(=O)O)C(=O)N[C@@H](CC(N)=O)C(=O)N[C@@H]([C@@H](C)O)C(=O)N[C@@H](C)C(=O)N[C@@H]([C@@H](C)O)C(=O)N1)[C@@H](C)O)C(=O)N[C@@H](CC(C)C)C(=O)N[C@@H](CO)C(=O)N[C@@H](CO)C(=O)N[C@H](C(=O)N[C@@H](CC(N)=O)C(=O)N[C@H](C(=O)NCC(=O)N1CCC[C@H]1C(=O)N[C@@H](CCC(=O)O)C(=O)N[C@H](C(=O)N[C@@H](Cc1ccc(O)cc1)C(N)=O)[C@@H](C)O)C(C)C)[C@@H](C)O
notes: as for B1
Which IC50 [1] does the source give for B3 here?
The IC50 was 0.659 nM.

What about the “Ratio hCT/hAmylin binding” value [2] of the same binder?
Its value is 7.8.

And the “Ratio rCT/rAmylin binding” value (rat calcitonin receptor [3])?
The value was 132.

What about the IC50 (rat calcitonin receptor [4]) of the same binder?
The IC50 was 86.8 nM.

B4: N^ε1-[(4S)-4-carboxy-4-[[(4S)-4-carboxy-4-(19-carboxynonadecanoylamino)butanoyl]amino]butanoyl]-[His14,Arg17,Pro21,Pro27]-h-amylin (peptide)
peptide: K([γGlu-γGlu-C20 diacid])CNTATCATQRLAHFLRHSSPNFGAIPSSTNVGSNTY-NH2
modifications: disulfide 2-7; N-terminus assumed
SMILES: CC[C@H](C)[C@H](NC(=O)[C@H](C)NC(=O)CNC(=O)[C@H](Cc1ccccc1)NC(=O)[C@H](CC(N)=O)NC(=O)[C@@H]1CCCN1C(=O)[C@H](CO)NC(=O)[C@H](CO)NC(=O)[C@H](Cc1c[nH]cn1)NC(=O)[C@H](CCCNC(=N)N)NC(=O)[C@H](CC(C)C)NC(=O)[C@H](Cc1ccccc1)NC(=O)[C@H](Cc1c[nH]cn1)NC(=O)[C@H](C)NC(=O)[C@H](CC(C)C)NC(=O)[C@H](CCCNC(=N)N)NC(=O)[C@H](CCC(N)=O)NC(=O)[C@@H](NC(=O)[C@H](C)NC(=O)[C@@H]1CSSC[C@H](NC(=O)[C@@H](N)CCCCNC(=O)CC[C@H](NC(=O)CC[C@H](NC(=O)CCCCCCCCCCCCCCCCCCC(=O)O)C(=O)O)C(=O)O)C(=O)N[C@@H](CC(N)=O)C(=O)N[C@@H]([C@@H](C)O)C(=O)N[C@@H](C)C(=O)N[C@@H]([C@@H](C)O)C(=O)N1)[C@@H](C)O)C(=O)N1CCC[C@H]1C(=O)N[C@@H](CO)C(=O)N[C@@H](CO)C(=O)N[C@H](C(=O)N[C@@H](CC(N)=O)C(=O)N[C@H](C(=O)NCC(=O)N[C@@H](CO)C(=O)N[C@@H](CC(N)=O)C(=O)N[C@H](C(=O)N[C@@H](Cc1ccc(O)cc1)C(N)=O)[C@@H](C)O)C(C)C)[C@@H](C)O
notes: Synthetic acylated analogue of human amylin; also called compound 92
How did the IC50 [1] turn out when B4 was run?
Its IC50 is 0.668 nM.

And the “Ratio hCT/hAmylin binding” value [2]?
The value was 145.

What about the “Ratio rCT/rAmylin binding” value (rat calcitonin receptor [3]) of the same binder?
Its value is 156.

And the IC50 (rat calcitonin receptor [4])?
The IC50 was 104 nM.

B5: N^ε1-[(4S)-4-carboxy-4-[[(4S)-4-carboxy-4-(19-carboxynonadecanoylamino)butanoyl]amino]butanoyl]-[Ser14,Arg17,Pro21,Pro27,Pro34,Glu35]-h-amylin (peptide)
peptide: K([γGlu-γGlu-C20 diacid])CNTATCATQRLASFLRHSSPNFGAIPSSTNVGPETY-NH2
modifications: disulfide 2-7; N-terminus assumed
SMILES: CC[C@H](C)[C@H](NC(=O)[C@H](C)NC(=O)CNC(=O)[C@H](Cc1ccccc1)NC(=O)[C@H](CC(N)=O)NC(=O)[C@@H]1CCCN1C(=O)[C@H](CO)NC(=O)[C@H](CO)NC(=O)[C@H](Cc1c[nH]cn1)NC(=O)[C@H](CCCNC(=N)N)NC(=O)[C@H](CC(C)C)NC(=O)[C@H](Cc1ccccc1)NC(=O)[C@H](CO)NC(=O)[C@H](C)NC(=O)[C@H](CC(C)C)NC(=O)[C@H](CCCNC(=N)N)NC(=O)[C@H](CCC(N)=O)NC(=O)[C@@H](NC(=O)[C@H](C)NC(=O)[C@@H]1CSSC[C@H](NC(=O)[C@@H](N)CCCCNC(=O)CC[C@H](NC(=O)CC[C@H](NC(=O)CCCCCCCCCCCCCCCCCCC(=O)O)C(=O)O)C(=O)O)C(=O)N[C@@H](CC(N)=O)C(=O)N[C@@H]([C@@H](C)O)C(=O)N[C@@H](C)C(=O)N[C@@H]([C@@H](C)O)C(=O)N1)[C@@H](C)O)C(=O)N1CCC[C@H]1C(=O)N[C@@H](CO)C(=O)N[C@@H](CO)C(=O)N[C@H](C(=O)N[C@@H](CC(N)=O)C(=O)N[C@H](C(=O)NCC(=O)N1CCC[C@H]1C(=O)N[C@@H](CCC(=O)O)C(=O)N[C@H](C(=O)N[C@@H](Cc1ccc(O)cc1)C(N)=O)[C@@H](C)O)C(C)C)[C@@H](C)O
notes: Synthetic acylated analogue of human amylin; also called compound 120
What does the source list for B5?
IC50 [1]: 0.161 nM; Ratio hCT/hAmylin binding [2]: 45.3; Ratio rCT/rAmylin binding (rat calcitonin receptor [3]): 868; IC50 (rat calcitonin receptor [4]): 140 nM
